Assay results published in article PMC12416549 (2024).
Substitutions are numbered along the chain they refer to. In names and notes the source's numbering stands.

Target: T1, TNFR1 (Homo sapiens, UniProt P19438)
T1 chain: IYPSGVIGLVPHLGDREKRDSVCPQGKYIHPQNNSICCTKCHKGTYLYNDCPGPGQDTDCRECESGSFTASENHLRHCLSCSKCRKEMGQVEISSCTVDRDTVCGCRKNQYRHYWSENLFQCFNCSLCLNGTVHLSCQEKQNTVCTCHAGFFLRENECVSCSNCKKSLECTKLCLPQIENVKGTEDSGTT
Assay: yeast display SC50

B1: K48Y (designed binder)
chain: SMEEEVEKAAKEYEKKKKEAIEKHLEKLKAKDKEAAERFLKELEEAAYEYAKDEAKTMSEEEAKRRAKKYKEKVLLSELSEEEQKEIKEAEEKLVRTILKYVEEAAK
B1 was tested, and the “apparent Kd (screen)” value was 0.653 nM.

B2: R65F (designed binder)
chain: B1 chain with Y48K, R65F
In the case of B2, the “apparent Kd (screen)” value is reported as 7.07 nM.

B3: K48I (designed binder)
chain: B1 chain with Y48I
B3 was tested, and the “apparent Kd (screen)” value was 0.49 nM.

B4: K64R (designed binder)
chain: B1 chain with Y48K, K64R
For B4, the “apparent Kd (screen)” value was 0.869 nM.

B5: K31Q (designed binder)
chain: B1 chain with K31Q, Y48K
B5 was tested, and the “apparent Kd (screen)” value was 1.16 nM.

B6: K71M (designed binder)
chain: B1 chain with Y48K, K71M
For B6, the “apparent Kd (screen)” value was 3 nM.

B7: E61V (designed binder)
chain: B1 chain with Y48K, E61V
For B7, the “apparent Kd (screen)” value was 1.16 nM.

B8: E45A (designed binder)
chain: B1 chain with E45A, Y48K
With B8 the “apparent Kd (screen)” value was 2.05 nM.

B9: S1K (designed binder)
chain: B1 chain with S1K, Y48K
In the case of B9, the “apparent Kd (screen)” value is reported as 0.446 nM.

B10: F39M (designed binder)
chain: B1 chain with F39M, Y48K
In the case of B10, the “apparent Kd (screen)” value is reported as 3 nM.

B11: K93Y (designed binder)
chain: B1 chain with Y48K, K93Y
B11 was tested, and the “apparent Kd (screen)” value was 2.25 nM.

B12: K64H (designed binder)
chain: B1 chain with Y48K, K64H
B12 was tested, and the “apparent Kd (screen)” value was 0.593 nM.

B13: K64Q (designed binder)
chain: B1 chain with Y48K, K64Q
B13 was tested, and the “apparent Kd (screen)” value was 0.446 nM.

B14: R96I (designed binder)
chain: B1 chain with Y48K, R96I
With B14 the “apparent Kd (screen)” value was 0.718 nM.

B15: A46N (designed binder)
chain: B1 chain with A46N, Y48K
For B15, the “apparent Kd (screen)” value was 1.69 nM.

B16: A20W (designed binder)
chain: B1 chain with A20W, Y48K
With B16 the “apparent Kd (screen)” value was 2.25 nM.

B17: S59V (designed binder)
chain: B1 chain with Y48K, S59V
B17 was tested, and the “apparent Kd (screen)” value was 1.54 nM.

B18: K71W (designed binder)
chain: B1 chain with Y48K, K71W
For B18, the “apparent Kd (screen)” value was 4.39 nM.

B19: M58Y (designed binder)
chain: B1 chain with Y48K, M58Y
For B19, the “apparent Kd (screen)” value was 24.4 nM.

B20: K68Y (designed binder)
chain: B1 chain with Y48K, K68Y
B20 was tested, and the “apparent Kd (screen)” value was 3.99 nM.

B21: L25S (designed binder)
chain: B1 chain with L25S, Y48K
For B21, the “apparent Kd (screen)” value was 1.05 nM.

B22: K33C (designed binder)
chain: B1 chain with K33C, Y48K
With B22 the “apparent Kd (screen)” value was 0.653 nM.
